Laboratory results from patent publication US10806804B2, “Compounds having RD targeting motifs and methods of use thereof” (Washington University, priority 2015, dated 2020).
Positions of bridges follow the written chain, without caps; N, C: chain ends. Non-standard residues stand in square brackets, D forms with d. Residues, ends and D or L forms follow the SMILES beside them. Primed or numbered codes have the meaning given here. *: point of attachment. Cypate = CC1(C)C(/C=C/C=C/C=C/C=C2/N(CCC(=O)*)c3ccc4ccccc4c3C2(C)C)=[N+](CCC(=O)O)c2ccc3ccccc3c21; Cypate′ = not defined here

How the values were obtained:
4T1 luc = assay: in vivo tumor targeting / fluorescence imaging of probes compared with LS301; set-up: species or system Balb/c; settings: Tyr adjacent to the cypate
Protocol: FIG. 5 depicts images showing LS838 for fluorescence and nuclear (PET and or SPECT) imaging. 4T1 luc in Balb/c; 100 μl of 50 μM LS838.
FIG. 6 depicts the distribution of LS838 in tissue at 24 hours.
A variety of probes which have similar sequence compared to LS301 were designed and prepared (Table 1). The probes have different peptide sequences, D-, L-amino acid variations or different groups on C-terminus. The sequences of the probes were tested by LC-MS and the spectroscopy properties were recorded. The performances of the tumor targeting abilities were also tested in vivo. […] It was unexpected that LS838 would be brighter relative to LS301 and it is unknown to us why it does. However, the enhanced brightness allows the use of smaller amounts of material to achieve the same uptake kinetics and accumulation as LS301. FIG. 5 depicts the accumulation of LS838 in vivo and FIG. 6 graphically quantifies the intensity of LS838 in various organs. […] LS838 labeled can be labeled with radionuclides such as radio-iodine, bromine, or fluorine for combined optical and nuclear imaging.

tumor cells = assay: NIR fluorescence microscopy of uptake and trafficking in cells; type: cell-based; settings: dye alone
Protocol: FIG. 8A and FIG. 8B depict uptake of LS838 in 4T1 luc cells showing internalization of the probe in the cells at 1 h (FIG. 8A) and 4 h (FIG. 8B) post incubation. Most cells show localization in the lysosomes at early time points, but the punctate fluorescence became more diffuse at 24 h, indicating translocation to the cytosol. Uptake in the mitochondria was negligible. Color scheme: cyan, Mitotracker; green, lysotracker; and red, LS838. (FIG. 8C) Internalization of LS838 in cells was inhibited by Filipinin, an inhibitor of albumin endocytosis via the gp60 pathway. A similar inhibition was observed when Alexa-680 dye labeled albumin (BSA; blue) was mixed with LS838.
At early time points, LS838 is largely in the lysosomes, but it translocates to the cytosol in a time-dependent manner. […]
Aggresomes are microtubule-catalyzed aggregates of […] that are used to degrade particularly stable and aggregated proteins. […] It will be evaluated if tumors have a lower ability to form aggresomes because of microtubule dysfunction, leading to prolonged retention in tumor cells compared to normal cells. If LS838 induces aggresome formation in tumor cells, but not fibroblasts will first be determined. […] It will also be determined if aggresomes form in vivo using a literature method. […] Aggresome formation will be determined by staining muscle, skin, and tumors for anti-ubiquitin protein. […]

PDAC [1] = assay: in vivo uptake/contrast in PDAC relative to uninvolved pancreas
Description: A similar trend is observed in vivo, where preferential uptake in PDAC relative to uninvolved pancreas is […]. […] Permutation of the arginine-aspartic acid sequence results in a loss of PDAC-selective uptake. It has been shown that cypate binds to the hydrophobic pockets of albumin, irrespective of the source (human, murine, or bovine). […] Thus, the primary goal of this study is to determine the role of the peptide in tumor cell internalization or retention. Based on preliminary data, this question can be addressed by preparing the following cypate-labeled peptides (underlined amino acids are changes made to LS838): […]

albumin [2] = target: T1, albumin (Homo sapiens, UniProt P02768); settings: carbocyanine dyes, previous study; cited from earlier work
T1 sequence (P02768 25-609, species assumed): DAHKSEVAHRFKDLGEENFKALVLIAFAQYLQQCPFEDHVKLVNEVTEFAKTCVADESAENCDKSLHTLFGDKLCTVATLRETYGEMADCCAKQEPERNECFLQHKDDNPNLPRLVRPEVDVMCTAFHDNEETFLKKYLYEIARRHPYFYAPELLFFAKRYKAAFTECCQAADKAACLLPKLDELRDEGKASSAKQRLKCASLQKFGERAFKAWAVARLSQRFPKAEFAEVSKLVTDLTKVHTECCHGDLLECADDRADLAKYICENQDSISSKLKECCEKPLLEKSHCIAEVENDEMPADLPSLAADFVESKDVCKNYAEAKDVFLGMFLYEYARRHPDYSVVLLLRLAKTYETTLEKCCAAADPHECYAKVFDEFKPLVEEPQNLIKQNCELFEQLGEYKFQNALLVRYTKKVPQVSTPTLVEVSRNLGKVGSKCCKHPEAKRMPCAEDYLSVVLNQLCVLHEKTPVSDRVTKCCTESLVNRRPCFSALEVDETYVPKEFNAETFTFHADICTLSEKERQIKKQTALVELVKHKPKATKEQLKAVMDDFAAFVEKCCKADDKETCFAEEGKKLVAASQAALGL

PDAC [3] = tested on: PDAC; set-up: species or system mice; settings: mouse, in vivo
Description: To overcome this problem, the use of peptides as a tumor-trapping mechanism was explored. The highly reducing environment of tumor cells is known to reduce disulfide bonds to thiols, which can trans-thiolate with cysteine-containing intracellular proteins to trap the molecular probe. Therefore, a variety of disulfide-containing peptides were conjugated to cypate and the compounds were screened in mice with advanced stage PDAC. […] Replacement of the D-Cysteine with the natural L-Cysteine residue abrogates this retention.

[4] = in vivo
Description: While this is not a problem in the proposed laparoscopy, the excretion route to the kidneys can be altered by conjugating positively charged moieties (—^+NMe3) or nonionic groups (e.g. PEG) to the free carboxylic acid group of cypate. […] In the unlikely event that the cyanine dyes are photo-unstable, they will be replaced with NIR pyrrolopyrrole cyanine dyes (PPCy), which are highly photostable and have exceptionally high fluorescence quantum yields (up to 80%).

albumin [5] = target: T1, albumin; assay: binding of carbocyanine dyes and LS838 to albumin (binding constant K)
Description: The hypothesis is that the binding of cypate to albumin facilitates the internalization of LS838 in PDAC/PanIN lesions. In a previous study, the binding of some carbocyanine dyes to albumin was compared. […] It was also shown that conjugation of peptides to the dyes decreases the K by a factor of ˜10. Using the same method, we determined the K value of LS838 to be 86,000 M^−1.

pancreas tumor cells = settings: in vivo

With `CC1(C)C(/C=C/C=C/C=C/C=C2/N(CCC(=O)N[C@@H](Cc3ccc(O)cc3)C(=O)N[C@@H]3CSSC[C@@H](C(=O)N[C@@H](CCCCN)C(=O)O)NC(=O)[C@@H]4CCCN4C(=O)[C@H](CO)NC(=O)[C@H](CC(=O)O)NC(=O)[C@H](CCCNC(=N)N)NC(=O)CNC3=O)c3ccc4ccccc4c3C2(C)C)=[N+](CCC(=O)O)c2ccc3ccccc3c21` [LS747, Cypate-Tyr-Cyclo(DCys-Gly-Arg-Asp-Ser-Pro-Cys)-Lys-OH] (Cypate-Y[dC]GRDSPCK-OH; disulfide 2-8) the “retention in tumors after in vivo administration” value (4T1 luc) was “rapid loss of retention in tumors”.
In the case of `CC1(C)C(/C=C/C=C/C=C/C=C2/N(CCC(=O)O)c3ccc4ccccc4c3C2(C)C)=[N+](CCC(=O)[O-])c2ccc3ccccc3c21` [cypate], the “efflux from tumor cells after transfer to new culture medium” value (tumor cells) is given as “rapidly effluxes”, the “preferential uptake in PDAC relative to uninvolved pancreas” value (PDAC [1]) is given as “not observed” and the “binding constant (K) to albumin” value (albumin [2]) is given as 556,000 M^−1.
For `CC1(C)C(/C=C/C=C/C=C/C=C2/N(CCC(=O)N[C@@H]3CSSC[C@@H](C(=O)N[C@@H](Cc4ccc(O)cc4)C(=O)O)NC(=O)[C@@H]4CCCN4C(=O)[C@H](CO)NC(=O)[C@H](CC(=O)O)NC(=O)[C@H](CCCNC(=N)N)NC(=O)CNC3=O)c3ccc4ccccc4c3C2(C)C)=[N+](CCC(=O)O)c2ccc3ccccc3c21` [LS838, Cypate-Cyclo(DCys-Gly-Arg-Asp-Ser-Pro-Cys)-Tyr-OH] (Cypate-[dC]GRDSPCY-OH; disulfide 1-7), the “selective retention in tumors (duration)” value (PDAC [3]) was “over 48 h”, the clearance route [4] was “clears through the liver” and the Kd (albumin [5]) was 11.6 µM. For the same compound, the “time remaining primarily in the tumor cells relative to non-tumor cells” value (pancreas tumor cells) was “up to 100 h” and the “time to internalization in the pancreas” value (pancreas tumor cells) was ≤ 1 h.
For “Tyr-Cypate-Cyclo(DCys-Gly-Arg-Asp-Ser-Pro-Cys)-Lys-NH2 ({Tyr-Cypate′}-[dC]GRDSPCK-NH2; disulfide 1-7 (inferred)) [LS758]”, the “retention in tumors after in vivo administration” value (4T1 luc) was “rapid loss of retention in tumors”.
For `CC1(C)C(/C=C/C=C/C=C/C=C2\N(CCCCS(=O)(=O)O)c3ccc4ccccc4c3C2(C)C)=[N+](CCCCS(=O)(=O)[O-])c2ccc3ccccc3c21` [ICG, indocyanine green], the “binding constant (K) to albumin” value (albumin [2]) is given as 554,000 M^−1.
